Target: Gp41-HR1 (HIV-1)
Assay: SPR

B1: D5 IgG (antibody, V domains shown)
VH: QVQLVQSGAEVRKPGASVKVSCKASGDTFSSYAISWVRQAPGQGLEWMGGIIPIFGTANYAQAFQGRVTITANESTSTAYMELSSLRSEDTAIYYCARDNPTLLGSDYWGAGTLVTVSS
VL: DIQMTQSPSTLSASIGDRVTITCRASEGIYHWLAWYQQKPGKAPKLLIYKASSLASGAPSRFSGSGSGTDFTLTISSLQPDDFATYYCQQYSNYPLTFGGGTKLEIK
Kd: 3.1 nM | koff: 0.00103 s⁻¹ | kon: 335000 M⁻¹ s⁻¹
